Results from patent publication EP4624486A1 (Guangdong Raynovent Biotech Co., Ltd., dated 2025).
Bridge positions count the residues as written; N and C are the ends. Square brackets hold non-standard residues; d marks the D form. Ends that are not written are not given here. stapled body chem0195 = not defined here; αMeL = CC(C)C[C@](C)(N)C(=O)O; Aib = CC(C)(N)C(=O)O

T1: GIP receptor (GIPR) (UniProt P48546 22-466, limits assumed)
T1 sequence (looked up): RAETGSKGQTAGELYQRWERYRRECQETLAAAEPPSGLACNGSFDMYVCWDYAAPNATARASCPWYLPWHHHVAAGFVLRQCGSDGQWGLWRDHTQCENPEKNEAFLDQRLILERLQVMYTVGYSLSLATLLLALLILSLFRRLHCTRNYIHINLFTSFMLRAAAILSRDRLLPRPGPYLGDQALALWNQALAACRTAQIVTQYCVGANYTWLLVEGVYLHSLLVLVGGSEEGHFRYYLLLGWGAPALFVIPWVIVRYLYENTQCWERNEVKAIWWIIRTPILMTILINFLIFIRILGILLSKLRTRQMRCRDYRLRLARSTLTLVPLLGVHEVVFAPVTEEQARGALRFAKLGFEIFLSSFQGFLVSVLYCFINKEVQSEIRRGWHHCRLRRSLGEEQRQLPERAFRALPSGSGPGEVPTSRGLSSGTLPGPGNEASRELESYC


Columns and labels:
Test in all cases: cell-based or functional assay
GLP-1 receptor (GLP-1R) = GLP-1 receptor (GLP-1R) (UniProt P43220 24-463, limits assumed)
GIP receptor (GIPR) = target: T1, GIP receptor (GIPR)
GCG receptor (GCGR) = GCG receptor (GCGR) (UniProt P47871 26-477, limits assumed)
Sequence of GCG receptor (GCGR) (P47871 26-477 limits assumed): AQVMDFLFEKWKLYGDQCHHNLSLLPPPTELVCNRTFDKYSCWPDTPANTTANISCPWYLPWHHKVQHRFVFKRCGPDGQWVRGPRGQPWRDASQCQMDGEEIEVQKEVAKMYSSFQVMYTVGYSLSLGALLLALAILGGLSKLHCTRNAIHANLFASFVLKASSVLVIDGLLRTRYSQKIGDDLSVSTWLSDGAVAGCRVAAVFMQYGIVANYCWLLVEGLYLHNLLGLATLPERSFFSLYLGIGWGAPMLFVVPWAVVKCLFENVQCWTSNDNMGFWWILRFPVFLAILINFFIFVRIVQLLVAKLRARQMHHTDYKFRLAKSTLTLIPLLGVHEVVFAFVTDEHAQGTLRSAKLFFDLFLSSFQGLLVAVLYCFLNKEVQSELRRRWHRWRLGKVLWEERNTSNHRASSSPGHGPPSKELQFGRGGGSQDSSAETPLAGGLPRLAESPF

| Binder | GLP-1 EC50 (nM); cAMP, agonistic activity (GLP-1 receptor (GLP-1R)) | GIP-1 EC50 (nM); cAMP, agonistic activity (GIP receptor (GIPR)) | GCG EC50 (nM); cAMP, agonistic activity (GCG receptor (GCGR)) |
| --- | --- | --- | --- |
| Y[Aib]QGTFTSDYSI[αMeL]LDKKAQ[Aib]KFIEYLLEGGPSSGAPPPS-NH2 (bridge 17-21; also: further groups not given here) [Example 7] | 0.005 nM | 0.0003 nM | 0.061 nM |
| Y[Aib]QGTFTSDYSI[αMeL]LDKKAQ[Aib]KFIEYLLEGGPSSGAPPPS-NH2 (bridge 17-21) [Example 8] | 0.004 nM | 0.0004 nM | 0.012 nM |
| Y[Aib]QGTFTSDYSI[αMeL]LDKKAQ[Aib]AFIEKLLEGGPSSGAPPPS-NH2 (linker 25-28 via Lys, AEEA, γGlu, C20 diacid) [Example 3] | 0.025 nM | 0.003 nM | 1.68 nM |
| Y[Aib]QGTFTSDYSI[αMeL]LDKKAQ[Aib]AFIKWLLKGGPSSGAPPPS-NH2 (linker 24-28 via stapled body chem0195; reading uncertain; also: further groups not given here) [Example 2] | 0.009 nM | 0.001 nM | 0.279 nM |
| Y[Aib]QGTFTSDYSI[αMeL]LDKKAQ[Aib]KFIEFLLEGGPSSGAPPPS-NH2 (bridge 17-21; also: stapled body between K17 and K21 is given only as a drawing, not in text) [Example 9] | 0.005 nM | 0.0004 nM | 0.022 nM |
| H[Aib]HGTFTSDYSIYLEKKYA[Aib]KFVQWLLEGGPSSGAPPPS-NH2 (bridge 17-21; not fully specified (bridges); also: stapled body (lipidated) structure only in drawing chem0198) [Example 5] | 0.029 nM | 0.007 nM | 0.012 nM |
| H[Aib]HGTFTSDYSIYLEKKYA[Aib]EFVKWLLKGGPSSGAPPPS-NH2 (bridge 24-28; not fully specified (bridges); also: stapled body (lipidated) structure only in drawing chem0197) [Example 4] | 0.023 nM | 0.016 nM | 0.143 nM |
| Y[Aib]QGTFTSDYSI[αMeL]KDKKAQ[Aib]AFIEYLLEGGPSSGAPPPS-NH2 (linker 14-17 via (2-2-oxoethyl)‑glycine, AEEA, γGlu, 19‑phosphonononadecanoic acid) [Example 43] | – | – | 0.042 nM |
| Y[Aib]QGTFTSDYSI[αMeL]LDKKAQ[Aib]KFIEYLLEGGPSSGAPPPS-NH2 (bridge 17-21; also: stapled body between K17 and K21 is given only as a drawing, not in text) [Example 6] | 0.005 nM | 0.0005 nM | 0.017 nM |
